# Laboratory results: patent US20230002728A1, “STEM CELL FATE ENGINEERING METHODS” (Wisconsin Alumni Research Foundation, priority 2021, published 2023)
# B1: noggin: human recombinant noggin (R&D Systems, 6057-NG-025), a BMP inhibitor (protein, UniProt Q13253 28-232, looked up)
# Noggin: QHYLHIRPAPSDNLPLVDLIEHPDPIFDPKEKDLNETLLRSLLGGHYDPGFMATSPPEDRPGGGGGAAGGAEDLAELDQLLRQRPSGAMPSEIKGLEFSEGLAQGKKQRLSKKLRRKLQMWLWSQTFCPVLYAWNDLGSRFWPRYVKVGSCFSKRSCSVPEGMVCKPSKSVHLTVLRWRCQRRGGQRCGWIPIQYPIISECKCSC
# B2: activin A: human recombinant activin A (R&D Systems, 338-AC-010), morphogen (protein, UniProt P08476 311-426, looked up)
# Inhibin beta A chain: GLECDGKVNICCKKQFFVSFKDIGWNDWIIAPSGYHANYCEGECPSHIAGTSGSSLSFHSTVINHYRMRGHSPFANLKSCCVPTKLRPMSMLYYDDGQNIIKKDIQNMIVEECGCS
# B3: Wnt3a: human recombinant Wnt3a (R&D Systems, 5036-WN-010), morphogen (protein, UniProt P56704 19-352, looked up)
# Protein Wnt-3a: SYPIWWSLAVGPQYSSLGSQPILCASIPGLVPKQLRFCRNYVEIMPSVAEGIKIGIQECQHQFRGRRWNCTTVHDSLAIFGPVLDKATRESAFVHAIASAGVAFAVTRSCAEGTAAICGCSSRHQGSPGKGWKWGGCSEDIEFGGMVSREFADARENRPDARSAMNRHNNEAGRQAIASHMHLKCKCHGLSGSCEVKTCWWSQPDFRAIGDFLKDKYDSASEMVVEKHRESRGWVETLRPRYTYFKVPTERDLVYYEASPNFCEPNPETGSFGTRDRTCNVSSHGIDGCDLLCCGRGHNARAERRREKCRCVFHWCCYVSCQECTRVYDVHTCK
# How the values were obtained:
# Type in all cases: cell-based, human
# H9 hESCs [1] = assay: ALK inhibitor test on BMP4 patterns (BRA immunostaining, day 2); settings: 1 μM A83-01, 10 μM SB-431542 or 2 μM LDN-212854 added for the initial 24 h
# Procedure: For localized mesendoderm differentiation, 2-2.5 ng/μl BMP4 solution was placed with various patterns on different substrates. For glass surfaces, 1.5 ng/μl BMP4 solution was used. 5 ng/μl noggin solution was placed as a droplet to show an inhibitory effect of noggin on BMP4-induced mesendoderm differentiation. After washing, substrate was coated with Matrigel® for 2 hours as described above. Glass was coated with Matrigel® overnight. 0.025 mg/ml Synthemax (Corning, 3535) (final concentration, diluted in water) was added to a washed TC-treated plate and the plate was incubated for 2 hours at room temperature prior to cell seeding. 5 μg/ml truncated recombinant human vitronectin (Gibco, A14700) diluted in PBS was added to a washed TC-treated plate and the plate was incubated for 1 hour at room temperature prior to cell seeding. After ECM coating, the ECM solution was aspirated and hPSCs were singularized using Accutase (10 min incubation at 37° C.), resuspended in mTeSR1 supplemented with 5 μM Y-27632, and seeded at 5×10^5 to about 1×10^6 cells/cm^2 on coated substrates (day 0). […]
# (§1) For immunostaining of other protein markers, cells were fixed in 4% paraformaldehyde (Electron Microscopy Sciences, 15710-S) in PBS for 15 min at room temperature, washed with PBS three times, and incubated in diluted primary antibodies in 5% nonfat dry milk (Santa Cruz Biotechnology, sc-2324)/0.4% Triton X-100 (Fisher Scientific, BP151-500) PBS overnight at 4° C. […] After secondary antibody staining, the cells were washed with PBS three times, incubated in 2 μg/ml Hoechst 33342 diluted in PBS for 5 min at room temperature, washed with PBS two times, and analyzed under the fluorescence microscope.
# Next, BMP4 solution was placed on TC-treated plates in various patterns (droplet, letters, circle, heart, and star), and hPSCs seeded onto the substrate in mTeSR1 maintenance medium. […] Since the presence of inhibitory morphogens is also important in developmental patterning, a BMP inhibitor, noggin, was evaluated for antagonism to localized BMP4-induced mesendoderm differentiation. […]
# H9 hESCs [2] = assay: Noggin droplet pattern, inhibitory effect on BMP4-induced mesendoderm differentiation (BRA immunostaining); settings: 5 ng/μl noggin droplet on TC-treated PS; mTeSR1 with 10 ng/ml BMP4, 2 days
# Procedure: For localized mesendoderm differentiation, 2-2.5 ng/μl BMP4 solution was placed with various patterns on different substrates. For glass surfaces, 1.5 ng/μl BMP4 solution was used. 5 ng/μl noggin solution was placed as a droplet to show an inhibitory effect of noggin on BMP4-induced mesendoderm differentiation. After washing, substrate was coated with Matrigel® for 2 hours as described above. Glass was coated with Matrigel® overnight. 0.025 mg/ml Synthemax (Corning, 3535) (final concentration, diluted in water) was added to a washed TC-treated plate and the plate was incubated for 2 hours at room temperature prior to cell seeding. […]
# as §1, with “microscope. […]” for “microscope.”
# H9 hESCs [3] = assay: Localized definitive endoderm differentiation of hPSCs on adsorbed activin A patterns (SOX17/FOXA2 immunostaining)
# Procedure: For immunostaining of other protein markers, cells were fixed in 4% paraformaldehyde (Electron Microscopy Sciences, 15710-S) in PBS for 15 min at room temperature, washed with PBS three times, and incubated in diluted primary antibodies in 5% nonfat dry milk (Santa Cruz Biotechnology, sc-2324)/0.4% Triton X-100 (Fisher Scientific, BP151-500) PBS overnight at 4° C. Then, the cells were washed with PBS three times and incubated in diluted secondary antibody in 5% nonfat dry milk/0.4% Triton X-100 PBS for 30 min at room temperature. After secondary antibody staining, the cells were washed with PBS three times, incubated in 2 μg/ml Hoechst 33342 diluted in PBS for 5 min at room temperature, washed with PBS two times, and analyzed under the fluorescence microscope.
# For localized definitive endoderm differentiation, 25 ng/μl activin A solution was placed with various patterns on a TC-treated plate. Matrigel® coating and hPSC seeding was performed as the same way described above. Medium was changed daily with RPMI1640 medium supplemented with 2% FBS. For the ALK inhibitor test, 1 μM A83-01 (Tocris, 2939), 10 μM SB-431542 (Tocris, 1614), or 2 μM LDN-212854 (Tocris, 6151) was added to mTeSR1 at day 0. […]
# [4] = test system: H9 hESC-derived cardiac progenitor cells (CPCs); assay: Localized EpiC differentiation of hPSC-derived cardiac progenitors on morphogen droplets (WT1 immunostaining); settings: droplets on TC-coated PS plate, 7d after cardiac progenitor seeding
# Procedure: For localized EpiC differentiation, BMP4 (2 ng/μl)+Wnt3a (40 ng/μl) solution was placed in PDMS stencil masks either on a TC-treated plate or an ibidi 35 mm polymer dish. Matrigel® coating was performed as described above. Cryopreserved CPCs were thawed and seeded at 500,000-550,000 cells/cm^2 in LaSR medium (advanced DMEM/F12 (Gibco, 12634-010) supplemented with 60 μg/ml ascorbic acid (Sigma, A8960) and 2.5 mM Glutamax (Gibco, 35050-061)) supplemented with 5 μM Y-27632). Medium was changed daily with fresh LaSR medium until analysis. Time lapse imaging of CPCs derived from H9-hTNNT2-GFP hESC during localized EpiC differentiation was performed using a fluorescence microscope equipped with a heating stage top incubator. 18 days after CPC seeding, cells cultured on an ibidi polymer dish were immunostained and imaged using a confocal microscope (Nikon, A1R-SI+) for the analysis of sarcomere structure.
# Spatial organization of cell fate commitment is important throughout development. […] These cardiac progenitors can further differentiate into CMs without any specific external signaling factors and can also differentiate into EpiCs upon activation of canonical Wnt signaling (Bao et al. (2016) Nature biomed. Eng. 1, 1-12).
molecule,measurement,setting,value
Cc1cccc(-c2nn(C(=S)Nc3ccccc3)cc2-c2ccnc3ccccc23)n1 [A83-01],BRA expression in cells on the BMP4-patterned area,H9 hESCs [1],suppressed BRA expression
c1cc(-c2cnn3cc(-c4ccc(N5CCNCC5)cc4)cnc23)c2cccnc2c1 [LDN-212854],BRA expression in cells on the BMP4-patterned area,H9 hESCs [1],suppressed BRA expression
NC(=O)c1ccc(-c2nc(-c3ccc4c(c3)OCO4)c(-c3ccccn3)[nH]2)cc1 [SB431542],BRA expression in cells on the BMP4-patterned area,H9 hESCs [1],suppressed BRA expression
B1,effect on BMP4-induced mesendoderm differentiation (BRA expression),H9 hESCs [2],inhibited BMP4-induced mesendoderm differentiation
B2,endoderm differentiation (patterned SOX17 expression),"H9 hESCs [3]; 25 ng/μl activin A adsorbed on TC-treated plate, day 3",induced localized endoderm differentiation
same,cells expressing SOX17 and FOXA2 on the patterned area,H9 hESCs [3]; day 5 of differentiation,almost all of the cells
B3,EpiC differentiation (WT1 expression),[4],limited if any EpiC differentiation
